This is an account of results in US20230331828A1.

Where a chain is given by its changes, count along the chain named.

For one test, the target named is Aβ1-42 fibrils (human). Briefly: competition ELISA; plate coated with fibril Aβ42; competitor hBP-biotin; IC50 of test divided by IC50 of hBP.
The target of test [1] is Aβ plaques in APPxPS1 mouse brain (human) (UniProt P05067). Briefly: in vivo target engagement; APPxPS1 mice dosed 3 mg/kg SC weekly for three weeks; anti-human IgG IHC of cerebral cortex, % stained area.
Aβ plaques in APPxPS1 mouse brain (human), sequence (P05067 672-713): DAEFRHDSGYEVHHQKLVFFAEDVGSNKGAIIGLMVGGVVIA
The target is the same in test [2]. Briefly: in vivo target engagement; APPxPS1 mice dosed 10 mg/kg SC weekly for three weeks; anti-human IgG IHC of cerebral cortex, % stained area.

Aβ1-42 fibrils (human), sequence (peptide, as listed by the source): as the sequence (P05067 672-713) above

B1: h3818G (antibody, V domains shown)
VH: EVQLLESGGGLVQPGGSLRLSCAASGFTFANYGMSWVRQAPGKGLEWVASVRSGGSRTYYSDNVKGRFTISRDNSKNTLYLQMNSLRAEDTAVYYCVRYDHYSGSSDYWGQGTLVTVSS
VL: DVVMTQSPLSLPVTLGEPASISCKSSQSLMDTDGKTYLNWLLQKPGQSPQRLIYKVSNRESGVPDRFSGSGSGTDFTLKISRVEAEDVGVYYCWQGTHFPRTFGQGTKVEIK
As for B1, in the test with Aβ1-42 fibrils (human), the IC50 ratio (test:hBP) worked out at 1.18.

B2: h49k3G (antibody, V domains shown)
VH: B1 VH with A30S, Y32F, S56G, S105T
VL: B1 VL with M30L, T32S, E60D
B2: in the test with Aβ1-42 fibrils (human), the IC50 ratio (test:hBP) came out at 2.16.

B3: h4917G (antibody, V domains shown)
VH: B1 VH with A30S, Y32F, S56G, S105T
VL: B1 VL with M30L, T32S, S57T, T102S
Consider B3, for which the IC50 ratio (test:hBP) in the test with Aβ1-42 fibrils (human) was found to be 2.69.

B4: h4921G (antibody, V domains shown)
VH: B1 VH with A30S, Y32F, S56G, S105T
VL: B1 VL with M30L, T32S, K55R, S57T, E60D, S61T
B4: the IC50 ratio (test:hBP) with Aβ1-42 fibrils (human) is 1.01.

B5: h2929 (antibody, V domains shown)
VH: B1 VH with A30S, Y32F, G55S, S56G, S103T, S105T
VL: B1 VL with L15P, K24R, M30V, T32Y, K44R, E60D, T97S, T102S, F103Y
Regarding B5, in the test with Aβ1-42 fibrils (human), the IC50 ratio (test:hBP) amounted to 1.16.

B6: h2927 (antibody, V domains shown)
VH: B1 VH with A30S, Y32F, G55S, S56G, S103T, S105T
VL: B1 VL with L15P, M30L, T32Y, E60D, T102S
B6: in the test with Aβ1-42 fibrils (human), the IC50 ratio (test:hBP) was 1.6.

B7: h2926 (antibody, V domains shown)
VH: B1 VH with A30S, Y32F, G55S, S56G, S103T, S105T
VL: B1 VL with L15P, M30L, T32Y, E60D
Consider B7, for which, in the test with Aβ1-42 fibrils (human), the IC50 ratio (test:hBP) was determined as 0.99.

B8: h2826 (antibody, V domains shown)
VH: B1 VH with A30S, Y32F, G55S, S56G, S105T
VL: B1 VL with L15P, M30L, T32Y, E60D
As for B8, in the test with Aβ1-42 fibrils (human), the IC50 ratio (test:hBP) is 1.1.

B9: h2731 (antibody, V domains shown)
VH: B1 VH with A30S, V51I, G55S, S56G
VL: B1 VL with M30L, T32Y, K55R, S57T, E60D, S61T, T102S
Regarding B9, the Plaque Binding (% ROI) in test [1] was 0.07 % ROI; in test [2], 0.079 % ROI.

B10: h2727 (antibody, V domains shown)
VH: B1 VH with A30S, V51I, G55S, S56G
VL: B1 VL with L15P, M30L, T32Y, E60D, T102S
Consider B10, for which, in the test with Aβ1-42 fibrils (human), the IC50 ratio (test:hBP) worked out at 3.06.
